Legend:
[1] = tested on: adult rat cardiomyocytes; assay: DNA fragmentation and apoptosis-related protein western blotting; type: cell-based
Experimental: FIGS. 7A-C are a series of photographs showing the effects of HASF in cytochrome c, Bcl2, Bax and DNA degradation. In FIG. 7A, Adult rat cardiomyocytes were treated with +10 nM of HASF for 30 min, and then challenged with 100 μM of H2O2 for 6 h. Mitochondrial fraction or cytosolic fraction or total cell lysate were extracted and separated in 15% SDS-PAGE and transferred to nitrocellulose membrane and probed with mouse anti-Cytochrome C monoclonal antibody. Lane 1-2, —H2O2 control; lane 3-4, +H2O2 control; lane 5-8, four individual samples of +HASF recombinant protein and then +H2O2. In FIG. 7B, Western blot of mitochondrial fractions with Bcl2 and Bax antibodies respectively. Lane 1, —H2O2control; lane 2, +H2O2control; lane 3-6, four individual samples of +HASF and then +H2O2. In FIG. 7C, adult rat cardiomyocytes were treated +10 nM of HASF for 30 min, and then challenged with 100 μM of H2O2 for overnight (˜15 h). Genomic DNA was extracted and separated on 1% agarose gel. H2O2 induced apoptosis in cardiomyocytes was companied by typical DNA fragmentation (laddering) at late-stage apoptosis. Pre-incubation of cardiomyocytes with 10 nM of this HASF recombinant protein inhibited the DNA laddering to a noticeable extends. Lane 1, DNA marker; lane 2, —H2O2control; lane 3-4, +H2O2; lane 5-6, +HASF recombinant protein and then +H2O2.
Adult rat ventricular cardiomyocytes were isolated from 6 weeks old female Sprague-Dawley rat (Harlan World Headquarters, Indianapolis, Ill., USA) hearts by enzymatic digestion and were seeded in (6-well) plates or Delta T culture dishes (Bioptechs, Inc., Pa.) pre-coated with 1 μg/cm2 of laminin (Sigma) at 5×10^4/well and cultured overnight in serum-free M199 medium (Sigma), supplemented with 2 mM of L-carnitine, 5 mM of creatine, 5 mM of taurine, 0.2% of albumin, 100 U/ml of penicillin and 100 μg/ml of streptomycin. Cells were briefly treated without or with PKC inhibitor (with vehicle saponin), then recombinant protein HASF (10 or 100 nM) was added into cells for 30 min, with PBS used as vehicle controls. The cells were challenged with H2O2 for various time points. For the Caspase assays, cardiomyocytes were scraped off plates in lysis buffer and were analyzed by a luminescent plate reader with Caspase-Glo 3/7 and or Caspase-Glo 9 kits (Promega); and for DNA fragmentation, genomic DNA from cardiomyocytes was extracted and separated on 1% agarose gel electrophoreses, with Apoptotic DNA Ladder Extraction Kit (BioVision), according to manufacturers' instructions. […]

[2] = tested on: adult rat cardiomyocytes; assay: Caspase-Glo 9 and 3/7 assays of H2O2 induced apoptosis; type: cell-based; settings: 10 nM for 30 min, 100 μM H2O2, 5 h
Experimental: FIGS. 2B and 2C are bar graphs showing relative caspase activity. Adult rat cardiomyocytes were freshly isolated and treated ±10 nM of HASF for 30 min, and then challenged with 100 μM of H2O2 for various time points. H2O2 induced apoptosis in cardiomyocytes was evidenced by the dynamic increase in the activities of the initiator Caspase 9 and effector Caspase […] at 5 h, 7 h and 9 h respectively. Y axis represent the relative amount of luminescence indicating the relative amount of active Caspase activities. ** P<0.01 and *** P<0.001. Data are presented as means±standard deviation of triplicates.
FIG. 3C is a bar graph showing fold-change in caspase activity. Serum-starved adult rat cardiomyocytes were treated with 3 μM PKC inhibitors or vehicle DMSO for 30 minutes, then 100 nM HASF recombinant protein was added for 30 minutes followed by treatment with 200 μM H2O2 for 3 hours. Apoptosis was determined by detection of Caspase-9 activity using a homogeneous luminescent assay. All samples were measured in triplicates. *P<0.05 vs. non-HASF treated cells.
FIG. 4C is a bar graph showing relative caspase activity in adult cardiomyocytes. Apoptosis as determined by detection of Caspase-9 activity on adult rat cardiomyocytes pre-treated with 178 μM PKC translocation inhibitor peptide for 10 minutes and then with 100 nM of HASF for 30 minutes. Thereafter, cells were challenged with 200 μM H2O2 for 3 hours. All samples were measured in triplicates. *P <0.05 vs. non-HASF treated cells and the experiment was repeated multiple times.
Adult rat ventricular cardiomyocytes were isolated from 6 weeks old female Sprague-Dawley rat (Harlan World Headquarters, Indianapolis, Ill., USA) hearts by enzymatic digestion and were seeded in (6-well) plates or Delta T culture dishes (Bioptechs, Inc., Pa.) pre-coated with 1 μg/cm2 of laminin (Sigma) at 5×10^4/well and cultured overnight in serum-free M199 medium (Sigma), supplemented with 2 mM of L-carnitine, 5 mM of creatine, 5 mM of taurine, 0.2% of albumin, 100 U/ml of penicillin and 100 μg/ml of streptomycin. […]

[3] = tested on: rat myocardial infarction, peri-infarct region; assay: In vivo ischemia/reperfusion injury, TUNEL staining; settings: 1 μg intramyocardial, 30 min ischemia/24 h reperfusion
Experimental: FIG. 5B is a series of photographs and a bar graph showing TUNEL staining in control or HASF injected animals from groups described above to detect in vivo apoptosis of cardiomyocytes. Serial cyrosections of 5 μm thick were made immediately below the ligation area, 10 sections for each heart were analyzed, with N=8 rats per group. Sections were counterstained with hematoxylin. Total number of dark-brown color stained apoptotic nuclei were counted and added up blindly in 10 randomly taken fields within the peri-infarct region in each group.
Female Sprague-Dawley rats were used for all in vivo experiments. A midsternal thoracotomy was performed to expose the anterior surface of the heart after anesthesia. The proximal left […] coronary artery (LAD) was identified and a 6.0 suture (Ethicon) was placed around the artery and surrounding myocardium. […]
For TUNEL staining (DeadEnd Colometric TUNEL System, Promega) after 30 min ischemia/24 h reperfusion, serial cyrosections of 5 μm thick were made immediately below the ligation area, 10 sections for each heart were analyzed, with 8 rats in each group. […] Total number of dark-brown color stained apoptotic nuclei were counted and added up blindly in 10 randomly taken fields within the peri-infarct region in each group.

B1: HASF: Hypoxia regulated Akt MSC Factor, secreted protein encoded by C3orf58; recombinant human protein without N-signal sequence, SEQ ID NO:1 or 2 (protein, UniProt Q8NDZ4 36-430, looked up)
Divergent protein kinase …: LASWQRNELTDRRFLQLNKCPACFGTSWCRRFLNGQVVFEAWGRLRLLDFLNVKNVYFAQYGEPREGGRRRVVLKRLGSQRELAQLDQSICKRATGRPRCDLLQAMPRTEFARLNGDVRLLTPEAVEGWSDLVHCPSQRLLDRLVRRYAETKDSGSFLLRNLKDSERMQLLLTLAFNPEPLVLQSFPSDEGWPFAKYLGACGRMVAVNYVGEELWSYFNAPWEKRVDLAWQLMEIAEQLTNNDFEFALYLLDVSFDNFAVGPRDGKVIIVDAENVLVADKRLIRQNKPENWDVWYESKFDDCDKEACLSFSKEILCARATVDHNYYAVCQNLLSRHATWRGTSGGLLHDPPSEIAKDGRLEALLDECANPKKRYGRFQAAKELREYLAQLSNNVR
modifications: 6xHis tag
mitochondrial anti-apoptotic Bcl-2 protein level ([1]; 10 nM for 30 min, 100 μM H2O2): increased levels
cytochrome C release into the cytosol ([1]; 10 nM for 30 min, 100 μM H2O2 6 h): prevention of cytochrome C release into the cytosol
DNA fragmentation ([1]; 10 nM for 30 min, 100 μM H2O2 overnight (~15 h)): reduction of DNA fragmentation
translocation of Bax protein from cytosol into mitochondria ([1]; H2O2 induced apoptosis): did not prevent
reduction of Caspase 3/7 [2]: ~45%
reduction of Caspase 9 [2]: ~38%
reduction of the number of TUNEL positive nuclei [3]: ~69%

Reference: US20120172306A1, “Use of HASF as a Protective Agent Against Ischemic Tissue Damage” (Duke University, priority 2009, published 2012)
